Results: paper PMC6279937, “Biochemical Characterization of Aspergillus fumigatus AroH, a Putative Aromatic Amino Acid Aminotransferase” (Frontiers in Molecular Biosciences, 2018)

Tests used:
AroH = target: T1, AroH (Aspergillus fumigatus, UniProt Q4X0F7); test: intrinsic fluorescence quenching of apoenzyme, tight-binding fit; settings: read-out: KD(PLP)
T1 construct: gene AFUA_2G13630; entire AroH cDNA with C-terminal 6xHis tag (kept) in pET22b, synthesized by GenScript, expressed in E. coli BL21(DE3); subunit mass 59480 Da; homodimer with 1 PLP per subunit
T1 sequence (Q4X0F7 1-526): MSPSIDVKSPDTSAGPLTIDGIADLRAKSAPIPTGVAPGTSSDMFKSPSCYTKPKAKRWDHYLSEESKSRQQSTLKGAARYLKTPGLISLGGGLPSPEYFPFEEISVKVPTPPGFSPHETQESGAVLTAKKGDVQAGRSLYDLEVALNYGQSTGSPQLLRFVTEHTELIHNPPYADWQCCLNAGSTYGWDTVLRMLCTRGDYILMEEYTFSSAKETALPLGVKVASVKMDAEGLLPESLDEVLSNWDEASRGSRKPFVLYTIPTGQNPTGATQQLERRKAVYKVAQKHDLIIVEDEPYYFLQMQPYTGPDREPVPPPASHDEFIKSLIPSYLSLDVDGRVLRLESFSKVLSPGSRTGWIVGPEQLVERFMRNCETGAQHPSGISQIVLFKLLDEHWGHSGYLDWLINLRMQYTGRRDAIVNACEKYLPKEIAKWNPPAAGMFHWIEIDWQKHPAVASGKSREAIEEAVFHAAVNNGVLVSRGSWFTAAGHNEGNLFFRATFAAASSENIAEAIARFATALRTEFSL

[1] = target: Aspergillus fumigatus AroH, recombinant, with a C-terminal 6xHis tag (Aspergillus fumigatus); test: SEC; 5 uM holoAroH on Superdex 200 10/300 GL, 0.1 M potassium phosphate pH 7.4, 0.5 ml/min; elution volume compared with molecular weight standards
purified protein [2] = substrate: O=C(O)CCCC(=O)C(=O)O; test: purified protein; type: biochemical, Aspergillus fumigatus; settings: co-substrate L-glutamate, 100 μM PLP, 66 mM potassium phosphate pH 7.4
purified protein [3] = substrate: O=C(O)CCC(=O)C(=O)O; test: purified protein; type: biochemical, Aspergillus fumigatus; settings: co-substrate 20 mM L-tryptophan, 100 μM PLP, 66 mM potassium phosphate pH 8.2, 25°C, pH 8.2
purified protein [4] = substrate: N[C@@H](Cc1ccc(O)cc1)C(=O)O; test: purified protein; type: biochemical, Aspergillus fumigatus; settings: co-substrate 1 mM α-ketoglutarate, 100 μM PLP, 66 mM potassium phosphate pH 8.2, 25°C, pH 8.2
purified protein [5] = substrate: N[C@@H](CCCC(=O)O)C(=O)O; test: purified protein; type: biochemical, Aspergillus fumigatus; settings: co-substrate α-ketoglutarate, 100 μM PLP, 66 mM potassium phosphate pH 7.4
purified protein [6] = substrate: N[C@@H](Cc1ccccc1)C(=O)O; test: purified protein; type: biochemical, Aspergillus fumigatus; settings: co-substrate 1 mM α-ketoglutarate, 100 μM PLP, 66 mM potassium phosphate pH 8.2 (Figure 5 legend says pH 7.4), 25°C
purified protein [7] = substrate: N[C@@H](Cc1c[nH]c2ccccc12)C(=O)O; test: purified protein; type: biochemical, Aspergillus fumigatus; settings: co-substrate 1 mM α-ketoglutarate, 100 μM PLP, 66 mM potassium phosphate pH 8.2, 25°C, pH 8.2
purified protein [8] = substrate: Nc1ccccc1C(=O)C[C@H](N)C(=O)O; test: purified protein; type: biochemical, Aspergillus fumigatus; settings: co-substrate α-ketoglutarate, 100 μM PLP, 66 mM potassium phosphate pH 7.4
purified protein [9] = substrate: N[C@@H](CCC(=O)O)C(=O)O; test: purified protein; type: biochemical, Aspergillus fumigatus; settings: co-substrate α-ketoadipate, 100 μM PLP, 66 mM potassium phosphate pH 7.4

Molecule: Cc1ncc(COP(=O)(O)O)c(C=O)c1O [PLP]
- Kd (AroH): 100 ± 20 nM

Molecule: Aspergillus fumigatus AroH, recombinant, with a C-terminal 6xHis tag (enzyme)
- stoichiometry N [1]: 2

B1: AroH (Aspergillus fumigatus Af293) (protein)
chain: T1 sequence (Q4X0F7 1-526)
notes: entire AroH cDNA with C-terminal 6xHis tag (kept) in pET22b, synthesized by GenScript, expressed in E. coli BL21(DE3); subunit mass 59480 Da; homodimer with 1 PLP per subunit
- Km (purified protein [2]): 140 ± 30 µM
- kcat (purified protein [2]): 12.5 ± 1 s⁻¹
- kcat/Km (purified protein [2]): 90000 ± 20000 M⁻¹ s⁻¹
- Km (purified protein [3]): 180 ± 20 µM
- kcat (purified protein [3]): 2.5 ± 0.1 s⁻¹
- kcat/Km (purified protein [3]): 14000 ± 2000 M⁻¹ s⁻¹
- Km (purified protein [4]): 500 ± 100 µM
- kcat (purified protein [4]): 4 ± 0.3 s⁻¹
- kcat/Km (purified protein [4]): 8000 ± 2000 M⁻¹ s⁻¹
- Km (purified protein [5]): 3300 ± 400 µM
- kcat (purified protein [5]): 13.2 ± 0.5 s⁻¹
- kcat/Km (purified protein [5]): 4000 ± 400 M⁻¹ s⁻¹
- Km (purified protein [6]): 1400 ± 200 µM
- kcat (purified protein [6]): 7.4 ± 0.2 s⁻¹
- kcat/Km (purified protein [6]): 5200 ± 600 M⁻¹ s⁻¹
- Km (purified protein [7]): 2100 ± 300 µM
- kcat (purified protein [7]): 3 ± 0.1 s⁻¹
- kcat/Km (purified protein [7]): 1400 ± 200 M⁻¹ s⁻¹
- Km (purified protein [8]): 9000 ± 2000 µM
- kcat (purified protein [8]): 4.1 ± 0.4 s⁻¹
- kcat/Km (purified protein [8]): 400 ± 100 M⁻¹ s⁻¹
- Km (purified protein [9]): 10000 ± 1000 µM
- kcat (purified protein [9]): 10.3 ± 0.3 s⁻¹
- kcat/Km (purified protein [9]): 960 ± 80 M⁻¹ s⁻¹
